Key:
Assay in all cases: cell-based or functional assay
[1] = target: T1, soluble human LT-α1/β2 ligand (hLT-α1/β2) (human, UniProt P01374 35-205; Q06643 49-244, limits assumed)
T1 sequence (looked up) 1: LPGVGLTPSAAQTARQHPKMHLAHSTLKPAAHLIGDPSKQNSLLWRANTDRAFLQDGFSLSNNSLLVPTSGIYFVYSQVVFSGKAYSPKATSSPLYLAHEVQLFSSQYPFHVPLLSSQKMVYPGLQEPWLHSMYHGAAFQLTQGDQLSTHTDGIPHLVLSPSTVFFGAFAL
T1 sequence (looked up) 2: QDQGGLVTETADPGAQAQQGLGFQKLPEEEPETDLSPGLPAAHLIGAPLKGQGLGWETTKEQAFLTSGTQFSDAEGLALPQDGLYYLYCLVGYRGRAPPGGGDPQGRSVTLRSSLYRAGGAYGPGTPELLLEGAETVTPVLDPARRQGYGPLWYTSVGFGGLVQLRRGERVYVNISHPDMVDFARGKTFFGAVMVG

[2] = target: T2, hLT-α (human, UniProt P01374 35-205, limits assumed)
T2 sequence (looked up): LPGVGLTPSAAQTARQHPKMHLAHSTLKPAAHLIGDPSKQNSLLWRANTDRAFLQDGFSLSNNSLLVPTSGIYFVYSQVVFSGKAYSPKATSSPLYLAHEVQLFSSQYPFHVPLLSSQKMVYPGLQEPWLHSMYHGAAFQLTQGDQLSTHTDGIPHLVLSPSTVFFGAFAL

[3] = target: hTNF (human, UniProt P01375 77-233)
Chain of hTNF (P01375 77-233 limits assumed): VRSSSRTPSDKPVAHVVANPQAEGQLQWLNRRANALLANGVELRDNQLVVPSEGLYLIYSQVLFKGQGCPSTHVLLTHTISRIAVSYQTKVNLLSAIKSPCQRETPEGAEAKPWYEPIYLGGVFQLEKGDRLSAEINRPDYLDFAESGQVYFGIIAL

B1: soluble TNF-R fusion protein (p55-TNF-R-Fc) (Fc fusion, UniProt P19438 30-211, looked up, not shown: a dimerising Fc or GST)
chain: LVPHLGDREKRDSVCPQGKYIHPQNNSICCTKCHKGTYLYNDCPGPGQDTDCRECESGSFTASENHLRHCLSCSKCRKEMGQVEISSCTVDRDTVCGCRKNQYRHYWSENLFQCFNCSLCLNGTVHLSCQEKQNTVCTCHAGFFLRENECVSCSNCKKSLECTKLCLPQIENVKGTEDSGTT
In the case of B1, the “Concentration of Cytotoxic Agent (ng/ml) Resulting in 50% Growth Inhibition of HT29 cells, in the presence of 5 µg/ml p55-TNF-R-Fc” value [1] is reported as 5 ng/mL and the “Concentration of Cytotoxic Agent (ng/ml) Resulting in 50% Growth Inhibition of HT29 cells, in the presence of 5 µg/ml p55-TNF-R-Fc” value [2] is reported as over 1000 ng/mL.

B2: soluble human LT-β receptor-immunoglobulin Fc fusion protein (hLT-β-R-Fc) (Fc fusion, not shown: a dimerising Fc or GST)
chain: QAVPPYASENQTCRDQEKEYYEPQHRICCSRCPPGTYVSAKCSRIRDTVCATCAENSYNEHWNYLTICQLCRPCDPVMGLEEIAPCTSKRKTQCRCQPGMFCAAWALECTHCELLSDCPPGTEAELKDEVGKGNNHCVPCKAGHFQNTSSPSARCQPHTRCENQGLVEAAPGTAQSDTTCKNPLEPLPPEMSGT
For B2, the “Concentration of Cytotoxic Agent (ng/ml) Resulting in 50% Growth Inhibition of HT29 cells, in the presence of 5 µg/ml LT-β-R-Fc” value [1] was over 200 ng/mL, the “Concentration of Cytotoxic Agent (ng/ml) Resulting in 50% Growth Inhibition of HT29 cells, in the presence of 5 µg/ml LT-β-R-Fc” value [3] was 0.08 ng/mL and the “Concentration of Cytotoxic Agent (ng/ml) Resulting in 50% Growth Inhibition of HT29 cells, in the presence of 5 µg/ml LT-β-R-Fc” value [2] was 3 ng/mL.
